Assay [1] has as its target human corticotropin-releasing factor 2a (CRF2a receptor) (human), Q13324. In words: cell-based or functional assay.
Another assay addresses T1, CRF1R receptor (UniProt P34998 24-415, limits assumed).
T1 sequence (looked up): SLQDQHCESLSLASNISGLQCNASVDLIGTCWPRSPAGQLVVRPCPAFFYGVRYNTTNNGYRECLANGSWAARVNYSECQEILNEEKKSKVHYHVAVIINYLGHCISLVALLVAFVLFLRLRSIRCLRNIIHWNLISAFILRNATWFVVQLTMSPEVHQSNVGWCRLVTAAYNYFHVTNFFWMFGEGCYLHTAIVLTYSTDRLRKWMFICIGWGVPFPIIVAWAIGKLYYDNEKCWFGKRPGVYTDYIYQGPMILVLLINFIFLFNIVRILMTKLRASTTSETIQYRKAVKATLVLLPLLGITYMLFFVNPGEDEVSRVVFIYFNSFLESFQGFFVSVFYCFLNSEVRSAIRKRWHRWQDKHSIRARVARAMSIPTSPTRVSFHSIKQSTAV
In words: cell-based or functional assay.

The source of these data is patent US20260001928A1 (CORTERIA PHARMACEUTICALS, priority 2022, published 2026).

*1 amine or outer side, *2 acyl side, *3 side chain or, on linkers, in order; H or OH if unused. Primed or numbered codes have the meaning given here. Where no end group is shown, it is not given here. Side-chain parts run from the residue outwards. [ ]: non-standard residue; d: D form. The star is where a group is joined. Thp′ = 4-amino-tetrahydro-2H-pyran-4-yl-acetic acid, O=C(CC1(N[*:1])CCOCC1)[*:2]; ThP = 4-amino-tetrahydro-2H-pyran-4-yl-acetic acid, O=C(CC1(N[*:1])CCOCC1)[*:2]; C18 diacid = O=C(O)CCCCCCCCCCCCCCCCC(=O)*; C16 diacid = O=C(O)CCCCCCCCCCCCCCC(=O)*; γGlu = O=C(O)[C@H](CCC(=O)[*:2])N[*:1]; NMeI = CC[C@H](C)[C@H](NC)C(=O)O; Ac6c = NC1(C(=O)O)CCCCC1; Ac5c = NC1(C(=O)O)CCCC1 A value given as a limit tells only on which side of the number the result lay.

Chain of human corticotropin-releasing factor 2a (CRF2a receptor) (human), Q13324 (Q13324 20-411): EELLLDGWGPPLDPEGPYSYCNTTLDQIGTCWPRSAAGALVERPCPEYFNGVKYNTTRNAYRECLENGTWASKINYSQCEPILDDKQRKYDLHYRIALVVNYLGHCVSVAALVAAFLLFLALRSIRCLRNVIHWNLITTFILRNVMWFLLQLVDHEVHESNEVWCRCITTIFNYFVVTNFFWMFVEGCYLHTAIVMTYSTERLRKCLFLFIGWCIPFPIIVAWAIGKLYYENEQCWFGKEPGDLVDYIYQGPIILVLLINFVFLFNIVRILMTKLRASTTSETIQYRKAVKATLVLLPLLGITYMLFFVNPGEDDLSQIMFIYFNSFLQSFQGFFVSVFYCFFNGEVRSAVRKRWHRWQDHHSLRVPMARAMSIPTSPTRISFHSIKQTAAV

B1: SEQ ID NO 60 (peptide)
peptide: Ac-IVLSLD[dV]PIKLK([γGlu-C16 diacid])KILLEQEKQKKQREQAETN[Ac5c]QILAQV-NH2
SMILES: CC[C@H](C)[C@H](NC(C)=O)C(=O)N[C@H](C(=O)N[C@@H](CC(C)C)C(=O)N[C@@H](CO)C(=O)N[C@@H](CC(C)C)C(=O)N[C@@H](CC(=O)O)C(=O)N[C@@H](C(=O)N1CCC[C@H]1C(=O)N[C@H](C(=O)N[C@@H](CCCCN)C(=O)N[C@@H](CC(C)C)C(=O)N[C@@H](CCCCNC(=O)CC[C@H](NC(=O)CCCCCCCCCCCCCCC(=O)O)C(=O)O)C(=O)N[C@@H](CCCCN)C(=O)N[C@H](C(=O)N[C@@H](CC(C)C)C(=O)N[C@@H](CC(C)C)C(=O)N[C@@H](CCC(=O)O)C(=O)N[C@@H](CCC(N)=O)C(=O)N[C@@H](CCC(=O)O)C(=O)N[C@@H](CCCCN)C(=O)N[C@@H](CCC(N)=O)C(=O)N[C@@H](CCCCN)C(=O)N[C@@H](CCCCN)C(=O)N[C@@H](CCC(N)=O)C(=O)N[C@@H](CCCNC(=N)N)C(=O)N[C@@H](CCC(=O)O)C(=O)N[C@@H](CCC(N)=O)C(=O)N[C@@H](C)C(=O)N[C@@H](CCC(=O)O)C(=O)N[C@H](C(=O)N[C@@H](CC(N)=O)C(=O)NC1(C(=O)N[C@@H](CCC(N)=O)C(=O)N[C@H](C(=O)N[C@@H](CC(C)C)C(=O)N[C@@H](C)C(=O)N[C@@H](CCC(N)=O)C(=O)N[C@H](C(N)=O)C(C)C)[C@@H](C)CC)CCCC1)[C@@H](C)O)[C@@H](C)CC)[C@@H](C)CC)C(C)C)C(C)C
Regarding B1, the EC50 [nM] (cAMP) in assay [1] stood at 0.34 nM. Further, the “Emax (% I)” value with CRF1R receptor was determined as 5%.

B2: SEQ ID NO 142 (peptide)
peptide: [NMeI]VLSLD[dV]PIKLK([γGlu-C18 diacid])KILLEQEKQKKQREQAETNEQILAQV-NH2
modifications: N-terminus assumed
SMILES: CC[C@H](C)[C@H](NC)C(=O)N[C@H](C(=O)N[C@@H](CC(C)C)C(=O)N[C@@H](CO)C(=O)N[C@@H](CC(C)C)C(=O)N[C@@H](CC(=O)O)C(=O)N[C@@H](C(=O)N1CCC[C@H]1C(=O)N[C@H](C(=O)N[C@@H](CCCCN)C(=O)N[C@@H](CC(C)C)C(=O)N[C@@H](CCCCNC(=O)CC[C@H](NC(=O)CCCCCCCCCCCCCCCCC(=O)O)C(=O)O)C(=O)N[C@@H](CCCCN)C(=O)N[C@H](C(=O)N[C@@H](CC(C)C)C(=O)N[C@@H](CC(C)C)C(=O)N[C@@H](CCC(=O)O)C(=O)N[C@@H](CCC(N)=O)C(=O)N[C@@H](CCC(=O)O)C(=O)N[C@@H](CCCCN)C(=O)N[C@@H](CCC(N)=O)C(=O)N[C@@H](CCCCN)C(=O)N[C@@H](CCCCN)C(=O)N[C@@H](CCC(N)=O)C(=O)N[C@@H](CCCNC(=N)N)C(=O)N[C@@H](CCC(=O)O)C(=O)N[C@@H](CCC(N)=O)C(=O)N[C@@H](C)C(=O)N[C@@H](CCC(=O)O)C(=O)N[C@H](C(=O)N[C@@H](CC(N)=O)C(=O)N[C@@H](CCC(=O)O)C(=O)N[C@@H](CCC(N)=O)C(=O)N[C@H](C(=O)N[C@@H](CC(C)C)C(=O)N[C@@H](C)C(=O)N[C@@H](CCC(N)=O)C(=O)N[C@H](C(N)=O)C(C)C)[C@@H](C)CC)[C@@H](C)O)[C@@H](C)CC)[C@@H](C)CC)C(C)C)C(C)C
For B2, the EC50 [nM] (cAMP) in assay [1] amounted to 0.07 nM. In addition, the “Emax (% I)” value with CRF1R receptor is 3%.

B3: SEQ ID NO 133 (peptide)
peptide: Ac-IVLSLD[dV]PIKLK([γGlu-C18 diacid])KILLEQEKQKKQREQAETN[ThP]QILAQV-NH2
SMILES: CC[C@H](C)[C@H](NC(C)=O)C(=O)N[C@H](C(=O)N[C@@H](CC(C)C)C(=O)N[C@@H](CO)C(=O)N[C@@H](CC(C)C)C(=O)N[C@@H](CC(=O)O)C(=O)N[C@@H](C(=O)N1CCC[C@H]1C(=O)N[C@H](C(=O)N[C@@H](CCCCN)C(=O)N[C@@H](CC(C)C)C(=O)N[C@@H](CCCCNC(=O)CC[C@H](NC(=O)CCCCCCCCCCCCCCCCC(=O)O)C(=O)O)C(=O)N[C@@H](CCCCN)C(=O)N[C@H](C(=O)N[C@@H](CC(C)C)C(=O)N[C@@H](CC(C)C)C(=O)N[C@@H](CCC(=O)O)C(=O)N[C@@H](CCC(N)=O)C(=O)N[C@@H](CCC(=O)O)C(=O)N[C@@H](CCCCN)C(=O)N[C@@H](CCC(N)=O)C(=O)N[C@@H](CCCCN)C(=O)N[C@@H](CCCCN)C(=O)N[C@@H](CCC(N)=O)C(=O)N[C@@H](CCCNC(=N)N)C(=O)N[C@@H](CCC(=O)O)C(=O)N[C@@H](CCC(N)=O)C(=O)N[C@@H](C)C(=O)N[C@@H](CCC(=O)O)C(=O)N[C@H](C(=O)N[C@@H](CC(N)=O)C(=O)NC1(CC(=O)N[C@@H](CCC(N)=O)C(=O)N[C@H](C(=O)N[C@@H](CC(C)C)C(=O)N[C@@H](C)C(=O)N[C@@H](CCC(N)=O)C(=O)N[C@H](C(N)=O)C(C)C)[C@@H](C)CC)CCOCC1)[C@@H](C)O)[C@@H](C)CC)[C@@H](C)CC)C(C)C)C(C)C
By EC50 is commonly meant the concentration giving half of the maximal effect. Higher therefore signals weaker potency. B3 came in with an EC50 [nM] (cAMP) in assay [1] of 0.16 nM. In addition, in the assay with CRF1R receptor, the “EC50” value was more than 250 nM and the “Emax (% I)” value stood at 11%.

B4: SEQ ID NO 134 (peptide)
peptide: Ac-IVLSLD[dV]PIKLK([γGlu-C18 diacid])KILLEQEKQKKQREQAETN[Ac6c]QILAQV-NH2
SMILES: CC[C@H](C)[C@H](NC(C)=O)C(=O)N[C@H](C(=O)N[C@@H](CC(C)C)C(=O)N[C@@H](CO)C(=O)N[C@@H](CC(C)C)C(=O)N[C@@H](CC(=O)O)C(=O)N[C@@H](C(=O)N1CCC[C@H]1C(=O)N[C@H](C(=O)N[C@@H](CCCCN)C(=O)N[C@@H](CC(C)C)C(=O)N[C@@H](CCCCNC(=O)CC[C@H](NC(=O)CCCCCCCCCCCCCCCCC(=O)O)C(=O)O)C(=O)N[C@@H](CCCCN)C(=O)N[C@H](C(=O)N[C@@H](CC(C)C)C(=O)N[C@@H](CC(C)C)C(=O)N[C@@H](CCC(=O)O)C(=O)N[C@@H](CCC(N)=O)C(=O)N[C@@H](CCC(=O)O)C(=O)N[C@@H](CCCCN)C(=O)N[C@@H](CCC(N)=O)C(=O)N[C@@H](CCCCN)C(=O)N[C@@H](CCCCN)C(=O)N[C@@H](CCC(N)=O)C(=O)N[C@@H](CCCNC(=N)N)C(=O)N[C@@H](CCC(=O)O)C(=O)N[C@@H](CCC(N)=O)C(=O)N[C@@H](C)C(=O)N[C@@H](CCC(=O)O)C(=O)N[C@H](C(=O)N[C@@H](CC(N)=O)C(=O)NC1(C(=O)N[C@@H](CCC(N)=O)C(=O)N[C@H](C(=O)N[C@@H](CC(C)C)C(=O)N[C@@H](C)C(=O)N[C@@H](CCC(N)=O)C(=O)N[C@H](C(N)=O)C(C)C)[C@@H](C)CC)CCCCC1)[C@@H](C)O)[C@@H](C)CC)[C@@H](C)CC)C(C)C)C(C)C
For B4, in assay [1], the EC50 [nM] (cAMP) stood at 0.5 nM. For the same molecule, in the assay with CRF1R receptor, the “Emax (% I)” value was 10%.

B5: SEQ ID NO 58 (peptide)
peptide: Ac-IVLSLD[dV]PIKLK([γGlu-C16 diacid])KILLEQEKQKKQREQAETN[Thp′]QILAQV-NH2
As to B5, the EC50 [nM] (cAMP) in assay [1] was found to be 0.41 nM. Also, in the assay with CRF1R receptor, the half-maximal effective concentration (EC50) is more than 250 nM and the “Emax (% I)” value was 6%.

B6: SEQ ID NO 59 (peptide)
peptide: Ac-IVLSLD[dV]PIKLK([γGlu-C16 diacid])KILLEQEKQKKQREQAETN[Ac6c]QILAQV-NH2
SMILES: CC[C@H](C)[C@H](NC(C)=O)C(=O)N[C@H](C(=O)N[C@@H](CC(C)C)C(=O)N[C@@H](CO)C(=O)N[C@@H](CC(C)C)C(=O)N[C@@H](CC(=O)O)C(=O)N[C@@H](C(=O)N1CCC[C@H]1C(=O)N[C@H](C(=O)N[C@@H](CCCCN)C(=O)N[C@@H](CC(C)C)C(=O)N[C@@H](CCCCNC(=O)CC[C@H](NC(=O)CCCCCCCCCCCCCCC(=O)O)C(=O)O)C(=O)N[C@@H](CCCCN)C(=O)N[C@H](C(=O)N[C@@H](CC(C)C)C(=O)N[C@@H](CC(C)C)C(=O)N[C@@H](CCC(=O)O)C(=O)N[C@@H](CCC(N)=O)C(=O)N[C@@H](CCC(=O)O)C(=O)N[C@@H](CCCCN)C(=O)N[C@@H](CCC(N)=O)C(=O)N[C@@H](CCCCN)C(=O)N[C@@H](CCCCN)C(=O)N[C@@H](CCC(N)=O)C(=O)N[C@@H](CCCNC(=N)N)C(=O)N[C@@H](CCC(=O)O)C(=O)N[C@@H](CCC(N)=O)C(=O)N[C@@H](C)C(=O)N[C@@H](CCC(=O)O)C(=O)N[C@H](C(=O)N[C@@H](CC(N)=O)C(=O)NC1(C(=O)N[C@@H](CCC(N)=O)C(=O)N[C@H](C(=O)N[C@@H](CC(C)C)C(=O)N[C@@H](C)C(=O)N[C@@H](CCC(N)=O)C(=O)N[C@H](C(N)=O)C(C)C)[C@@H](C)CC)CCCCC1)[C@@H](C)O)[C@@H](C)CC)[C@@H](C)CC)C(C)C)C(C)C
B6 yielded an EC50 [nM] (cAMP) in assay [1] of 0.81 nM. In addition, the “Emax (% I)” value in the assay with CRF1R receptor came to 9%.

B7: SEQ ID NO 24 (peptide)
peptide: [NMeI]VLSLD[dV]PIKLK([γGlu-C18 diacid])QILLKQERQKKQREQAEKNAQILEQV-NH2
modifications: N-terminus assumed
SMILES: CC[C@H](C)[C@H](NC)C(=O)N[C@H](C(=O)N[C@@H](CC(C)C)C(=O)N[C@@H](CO)C(=O)N[C@@H](CC(C)C)C(=O)N[C@@H](CC(=O)O)C(=O)N[C@@H](C(=O)N1CCC[C@H]1C(=O)N[C@H](C(=O)N[C@@H](CCCCN)C(=O)N[C@@H](CC(C)C)C(=O)N[C@@H](CCCCNC(=O)CC[C@H](NC(=O)CCCCCCCCCCCCCCCCC(=O)O)C(=O)O)C(=O)N[C@@H](CCC(N)=O)C(=O)N[C@H](C(=O)N[C@@H](CC(C)C)C(=O)N[C@@H](CC(C)C)C(=O)N[C@@H](CCCCN)C(=O)N[C@@H](CCC(N)=O)C(=O)N[C@@H](CCC(=O)O)C(=O)N[C@@H](CCCNC(=N)N)C(=O)N[C@@H](CCC(N)=O)C(=O)N[C@@H](CCCCN)C(=O)N[C@@H](CCCCN)C(=O)N[C@@H](CCC(N)=O)C(=O)N[C@@H](CCCNC(=N)N)C(=O)N[C@@H](CCC(=O)O)C(=O)N[C@@H](CCC(N)=O)C(=O)N[C@@H](C)C(=O)N[C@@H](CCC(=O)O)C(=O)N[C@@H](CCCCN)C(=O)N[C@@H](CC(N)=O)C(=O)N[C@@H](C)C(=O)N[C@@H](CCC(N)=O)C(=O)N[C@H](C(=O)N[C@@H](CC(C)C)C(=O)N[C@@H](CCC(=O)O)C(=O)N[C@@H](CCC(N)=O)C(=O)N[C@H](C(N)=O)C(C)C)[C@@H](C)CC)[C@@H](C)CC)[C@@H](C)CC)C(C)C)C(C)C
B7 registered an EC50 [nM] (cAMP) in assay [1] of 0.04 nM. The “Emax (% I)” value in the assay with CRF1R receptor turned out to be 37%.
